± gives the half width of the 95% confidence interval.
Key:
[1] = folding stability dG unfold from chymotrypsin proteolysis; higher = more stable
In short: (§1)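 Mini-proteins designed to be under 80 residues and free of cysteine were carried in a PA-tagged cDNA display construct and digested with trypsin and with chymotrypsin. Each protease was applied at 11 threefold-diluted concentrations, alongside a no-protease condition, before sequencing. K50 came from Bayesian fitting of the sequencing counts, and unfolding free energy was obtained by comparing it with a sequence-predicted unfolded-state K50 and a shared folded-state K50, for each protease separately or for both together. Designs were retained only if their AlphaFold2 dimer inter-PAE exceeded 15.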

[2] = folding stability dG unfold from trypsin proteolysis; higher = more stable
In short: as §1

[3] = folding stability dG unfold (combined trypsin and chymotrypsin); higher = more stable
In short: as §1

Sequence | folding stability dG unfold [1] | folding stability dG unfold [2] | folding stability dG unfold [3]
SAGGMIRVEDTSTSVSIDIEITPLPNGQYKATITTTTTSAKLLPNGTPVTTTTPTTSTVTITPDVPLLSAGG [r13_561_JUSTAS] | 0.681 ± 0.15 kcal/mol | 1.47 ± 0.053 kcal/mol | 1.12 ± 0.14 kcal/mol
SAGGMITLEIELEDGTKIKIEITRLVSYDEEKGYAIFEAKITVEKDGKKFEKTITIIVKKGTKPGEIISAGG [r13_823_TrROS_Hall] | 4.01 ± 0.25 kcal/mol | 4.45 ± 0.43 kcal/mol | 4.19 ± 0.38 kcal/mol
SAGGMITLPIPLEEAEKLLKELTPDGGDVTTTPLGSLDGEVLYEVTITPPETGNTVTVKVLVPKGRGSAGGS [r16_486_JUSTAS] | 0.178 ± 0.11 kcal/mol | -0.627 ± 0.32 kcal/mol | 0.0837 ± 0.16 kcal/mol
SAGGMITLTTKTELIGSYRVTYSVTVDPVDDSVVTSTHVTVTPLPPPPPPLPPVPPENPVLPSPRLESAGGS [r8_234_JUSTAS] | 0.56 ± 0.42 kcal/mol | 0.355 ± 0.15 kcal/mol | 0.608 ± 0.2 kcal/mol
SAGGMITTSTLSDGTTVVTIRVPGSPEEADAVAEEVREALLAAGYRTVEVSREPVEDGWVVTITTVSSAGGS [r8_113_JUSTAS] | 3.888 ± 0.029 kcal/mol | 3.28 ± 0.063 kcal/mol | 3.711 ± 0.031 kcal/mol
SAGGMIVLEFPDGKIVFVEPVSEFTTPDGKKVRLVKVIVTDPLTGKSTIIEREVLPGGGVKEKVTPESAGGS [r16_651_JUSTAS] | 1.32 ± 0.043 kcal/mol | 1.89 ± 0.042 kcal/mol | 1.49 ± 0.13 kcal/mol
SAGGMKEIAKALGIKPEDVKIEEEEIEVNGKKVKKIKITVKDKKTKKEYKIELTIVYDKNGKIVKIELSAGG [r13_358_TrROS_Hall] | 4.72 ± 0.28 kcal/mol | 3.61 ± 0.15 kcal/mol | 4.63 ± 0.57 kcal/mol
SAGGMKIEVEVSDSDIESAAERIAKEVYEKIKAEGKNEDVEVTLTLPNGTRYRIVVDGKGNVKEIIESSAGG [r13_965_JUSTAS] | 3.79 ± 0.16 kcal/mol | 3.07 ± 0.17 kcal/mol | 3.74 ± 0.25 kcal/mol
SAGGMKIIEIEYDEETGKYKFKIKIYDKKTGKLYEIEVEVDKKTGKLSIEEIAKKIAEKLGLPKDIKISAGG [r13_362_TrROS_Hall] | 4.03 ± 0.062 kcal/mol | 2.8 ± 0.17 kcal/mol | 3.69 ± 0.3 kcal/mol
SAGGMKIKIEIEPEGDVVKVKIEIELPEGKVEVVEEEEAEVFEDGKIKVRFRVRRKDGPEFEFELDISAGGS [r8_449_TrMRF] | 4.41 ± 0.2 kcal/mol | 3.49 ± 0.17 kcal/mol | 4.17 ± 0.18 kcal/mol
SAGGMKIKIEVIDPDGKKRVIEIDASTPEEIKAALDALPPGAVVRIVVPSPELREALKEAGVDEVVELSAGG [r13_476_TrROS_Hall] | 2.77 ± 0.069 kcal/mol | 4.37 ± 0.23 kcal/mol | 3.87 ± 0.2 kcal/mol
SAGGMKITITLTVKNEELLEELKKLAEELGLKVKIEVKYDEETNELTVTVEIELPPPPEEPSEEELKSAGGS [r16_262_TrROS_Hall] | 3.4 ± 0.14 kcal/mol | 2.49 ± 0.12 kcal/mol | 3.24 ± 0.15 kcal/mol
SAGGMKITTKDGSTITVETEPGKVTITIKPPGDGSTTTLPFPAPSEEEGIEAAIKKIEEEGNVEEIELSAGG [r13_579_JUSTAS] | 0.591 ± 0.1 kcal/mol | 0.064 ± 0.1 kcal/mol | 0.491 ± 0.3 kcal/mol
SAGGMKKVKALVVANPFDPNKYKVFVKAEEEEKVFEFDPNNPEKIIEELEKLLPEDYKLDEIVFESGASAGG [r13_519_TrMRF] | 2.12 ± 0.058 kcal/mol | 0.752 ± 0.032 kcal/mol | 1.74 ± 0.1 kcal/mol
SAGGMKKVRLTLVFESEEEALEALRKALEEAGVEVKVVRVERLPDGRVVVTVEIEVSDEVLEALKAASAGGS [r8_357_TrROS_Hall] | 4.01 ± 0.053 kcal/mol | 3.77 ± 0.068 kcal/mol | 3.91 ± 0.056 kcal/mol
SAGGMKLEILEKSENRIIIRTDEGKIYIAPEIVKKLKEKGGNIKPTLDEIIEWLEKNNIPAEDAVFGDSAGG [r13_610_TrMRF] | 1.11 ± 0.064 kcal/mol | 0.689 ± 0.028 kcal/mol | 0.915 ± 0.11 kcal/mol
SAGGMKLEIYLRFKTEEEAKKAVEELIRKLLEELGLEVEVEVVYDEETKEVYVKVTVTFPELPEEELSAGGS [r8_17_TrROS_Hall] | 4.7 ± 0.29 kcal/mol | 3.67 ± 0.19 kcal/mol | 4.4 ± 0.39 kcal/mol
SAGGMKLPENAKVVKKIEIKDEKTGKTFKATIVKNKDGSLYIFIEKDGKIYKFKIENGKIKMEEIPPSAGGS [r16_711_TrROS_Hall] | 4.37 ± 0.25 kcal/mol | 3.75 ± 0.75 kcal/mol | 4.07 ± 0.55 kcal/mol

Sequence | folding stability dG unfold [1] | folding stability dG unfold [2] | folding stability dG unfold [3]
SAGGMKPGEIVEKITIEIEINGKKYKIEMTFYKDNGIIEIKIYNKNGKLIKTFKFYIDPKTKKIILLSAGGS [r16_798_TrROS_Hall] | 3.81 ± 0.098 kcal/mol | 3.66 ± 0.14 kcal/mol | 3.68 ± 0.34 kcal/mol
SAGGMKTLTITLTVRNPATQETLTLTITVPEGMSEEELQALLKQLQELVEALLQLPPPPPPPPPELESAGGS [r16_191_TrROS_Hall] | 4.25 ± 0.066 kcal/mol | 3.16 ± 0.12 kcal/mol | 4.01 ± 0.11 kcal/mol
SAGGMKTYTVTVEREVPDPSSDKWVYSTETLTIPYNVDPKTGTTPEEVAEELKAALPPDVLRVEFTDESAGG [r13_335_JUSTAS] | 0.468 ± 0.21 kcal/mol | -0.166 ± 0.14 kcal/mol | 0.317 ± 0.13 kcal/mol
SAGGMKVIELTVDEIKELADKLKENKNLKATIYVNGKKVELEFDTVEDALKALKVKPGDTVLIEIEPSAGGS [r16_377_TrROS_Hall] | 3.88 ± 0.07 kcal/mol | 2.6 ± 0.051 kcal/mol | 3.48 ± 0.068 kcal/mol
SAGGMKVKVEVEITVNGKLVKKLTVEMSVEELKKLIEELLPPGAKVEVKIVEVKVEEVEVYELPEEEKSAGG [r13_491_TrROS_Hall] | 2.21 ± 0.18 kcal/mol | 1.81 ± 0.13 kcal/mol | 2.18 ± 0.32 kcal/mol
SAGGMLDLSDVEVLNTVPIGGGNYLVLLKVPKLGKVVVVPASDLKKLKENVPNVKISFTPVAPSESGSAGGS [r16_61_TrMRF] | 1.3 ± 0.072 kcal/mol | 0.601 ± 0.025 kcal/mol | 1.09 ± 0.059 kcal/mol
SAGGMLEEVAEELAKELNATAREFTTVGDVPRILLTFKVPGSSTYLEVTLTLPPDGSVERTTKPIAASAGGS [r16_433_JUSTAS] | 1.7 ± 0.17 kcal/mol | 0.974 ± 0.047 kcal/mol | 1.3 ± 0.14 kcal/mol
SAGGMLKIEVTVPAEYPEQAEEIAAEIRDLLEAGPYVKVLKVEIEPTEDTVRVTVVVEIEFDSPEELISAGG [r13_39_TrMRF] | 2.1 ± 0.06 kcal/mol | 1.36 ± 0.17 kcal/mol | 1.78 ± 0.21 kcal/mol
SAGGMLLKLPLSSVEIPPDASEEEIEEAKRKLAKPKVVKVTEEVLIEENGIVKKVKVTKYVSLSVEESAGGS [r16_387_JUSTAS] | 0.56 ± 0.29 kcal/mol | 0.845 ± 0.082 kcal/mol | 0.87 ± 0.12 kcal/mol
SAGGMLPGLRPLLLAVLVPAEEPLEPEQVRELAEELRRELEEKGYGFAFRAIELEDFQLIIVDVVDPFSAGG [r13_442_TrMRF] | 3.429 ± 0.03 kcal/mol | 2.54 ± 0.051 kcal/mol | 3.11 ± 0.051 kcal/mol
SAGGMLRVTATVGYAPDDPAVELAKKIAEALTPPGMKVRMKAKVTPLADGTYRIDIEVEIRPPGEPGSAGGS [r16_128_TrMRF] | 3.64 ± 0.13 kcal/mol | 2.65 ± 0.16 kcal/mol | 3.27 ± 0.14 kcal/mol
SAGGMLTGTLVDPVEGIRYTSFYDPSKPSSSITPKPIPPVPPVSLEELAERLRAATGLSREEVLALLESAGG [r13_824_JUSTAS] | 0.396 ± 0.13 kcal/mol | 1.02 ± 0.022 kcal/mol | 0.76 ± 0.072 kcal/mol
SAGGMLTLIDPETGEPFLTTPIATFTVPVTLTGPDGKPLETRTLRITLFRAYRPDGSPALILLVSPESAGGS [r8_214_TrMRF] | 4.73 ± 0.061 kcal/mol | 3.7 ± 0.083 kcal/mol | 4.3 ± 0.052 kcal/mol
SAGGMLTLPATVEGDELTLTLPTGATKTVSPNTTVKLPDGTVVSLTPVSPSSVSATVTPLPADATRPSAGGS [r16_277_JUSTAS] | 1.601 ± 0.01 kcal/mol | 0.208 ± 0.029 kcal/mol | 1.21 ± 0.07 kcal/mol
SAGGMLTLTDPETGVPYTGTPVSTTTTTVVLTTPDGTPVETVTVTVTTYEFTAPDGTPVTLTETTGLSAGGS [r8_214_JUSTAS] | 2.27 ± 0.025 kcal/mol | 1.75 ± 0.071 kcal/mol | 2.08 ± 0.052 kcal/mol
SAGGMLTYTTEYDPRGVLTVREYDPSTSKPISTHIIELGPEPVPPPVPGFPQVTPSGELRLVEDPAGPSAGG [r13_9_JUSTAS] | -0.0943 ± 0.33 kcal/mol | -0.178 ± 0.12 kcal/mol | -0.0536 ± 0.15 kcal/mol
SAGGMLVEARPVLRLTLVSPDGTPREFELPFTVPFSPENPEALLEEAEAIARAIAEATGAEAEIEIEPSAGG [r13_853_TrMRF] | 0.017 ± 0.23 kcal/mol | 0.506 ± 0.064 kcal/mol | 0.319 ± 0.15 kcal/mol

Source: the supplement of paper PMC12764529
